Measurements taken from patent publication US20090099826A1 (published 2009).

T1: BIR3 domain of XIAP (residues 252-350), wild type
T1 chain: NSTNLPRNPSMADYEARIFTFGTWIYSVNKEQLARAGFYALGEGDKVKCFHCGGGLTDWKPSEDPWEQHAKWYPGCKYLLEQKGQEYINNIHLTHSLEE

B1: caspase-9, wild-type, processed catalytic domain (residues 139-315 and 316-416) (protein)
chain 1: VGALESLRGNADLAYILSMEPCGHCLIINNVNFCRESGLRTRTGSNIDCEKLRRRFSSLHFMVEVKGDLTAKKMVLALLELAQQDHGALDCCVVVILSHGCQASHLQFPGAVYGTDGCPVSVEKIVNIFNGTSCPSLGGKPKLFFIQACGGEQKDHGFEVASTSPEDESPGSNPEPD
chain 2: ATPFQEGLRTFDQLDAISSLPTPSDIFVSYSTFPGFVSWRDPKSGSWYVETLDDIFEQWAHSEDLQSLLLRVANAVSVKGIYKQMPGCFNFLRKKLFFKTS
B2: Procaspase-9 zymogen (residues 139-416) (enzyme, mammalian, UniProt P55211 139-416, looked up)
chain: VGALESLRGNADLAYILSMEPCGHCLIINNVNFCRESGLRTRTGSNIDCEKLRRRFSSLHFMVEVKGDLTAKKMVLALLELAQQDHGALDCCVVVILSHGCQASHLQFPGAVYGTDGCPVSVEKIVNIFNGTSCPSLGGKPKLFFIQACGGEQKDHGFEVASTSPEDESPGSNPEPDATPFQEGLRTFDQLDAISSLPTPSDIFVSYSTFPGFVSWRDPKSGSWYVETLDDIFEQWAHSEDLQSLLLRVANAVSVKGIYKQMPGCFNFLRKKLFFKTS
notes: range 139-416; Used here for self-association; also called unprocessed procaspase-9 zymogen

Key:
[1] = molecular target: XIAP-BIR3 point mutant L344A
[2] = molecular target: XIAP-BIR3 point mutant H343A
[3] = molecular target: XIAP-BIR3 point mutant P325G
[4] = molecular target: XIAP-BIR3 point mutant G326E
[5] = molecular target: T1, BIR3 domain of XIAP (residues 252-350), …
[6] = molecular target: the molecule itself; test: sedimentation equilibrium, analytical ultracentrifugation (self-association)
Method: To accurately determine the basal state of caspase-9 in solution, the molecular weight of caspase-9 was examined by sedimentation equilibrium analysis using analytical ultra-centrifugation (Table 2). […] In addition, this analysis confirms that the XIAP-BIR3 domain forms a stable hetero-dimer with the caspase-9 monomer (Table 2).
Analytical ultracentrifugation. Protein samples were prepared in 10 mM Tris-HCl, pH 8.0, 100 mM NaCl, and 2 mm DTT. All sedimentation equilibrium experiments were carried out at 4° C. using a Beckman Optima XL-A analytical ultracentrifuge equipped with an An60 Ti rotor and using six-channel, 12 mm path length, charcoal-filled Epon centerpieces and quartz windows. Data were collected at four rotor speeds (10,000, 15,000, 20,000, and 25,000 rpm) and represent the average of twenty scans using a scan step-size of 0.001 cm. Partial specific volumes and solution density were calculate using the Sednterp program. Data were analyzed using the WinNONOLIN program from the Analytical Ultracentrifugation Facility at the University of Connecticut (Storrs, Conn.).

Protein | cleavage of procaspase-3 (C163A) by caspase-9, SDS-PAGE [1] | cleavage of procaspase-3 (C163A) by caspase-9, SDS-PAGE [2] | cleavage of procaspase-3 (C163A) by caspase-9, SDS-PAGE [3] | cleavage of procaspase-3 (C163A) by caspase-9, SDS-PAGE [4] | cleavage of procaspase-3 (C163A) by caspase-9, SDS-PAGE [5] | binding result [6]
B1 | led to loss of this inhibition as judged by the cleavage of procaspase-3 precursor | led to loss of this inhibition as judged by the cleavage of procaspase-3 precursor | led to loss of this inhibition as judged by the cleavage of procaspase-3 precursor | led to loss of this inhibition as judged by the cleavage of procaspase-3 precursor | incubation with the WT BIR3 protein (residues 252-350) resulted in the efficient inhibition of the activity (lane 2) | –
B2 | – | – | – | – | – | no binding (tested: 20 µM)
